Experimental data as given in US20070148180A1, “Peptide-immunoglobulin-conjugate” (priority 2005, published 2007).
No end group written: not given here.

How the values were obtained:
[1] = test system: live NL-Bal viruses; assay type: cell-based, HIV-1; conditions: live NL-Bal virus, JC53-BL cells, luciferase activity
[2] = test system: pseudotyped NL-Bal viruses; conditions: pseudotyped NL-Bal virus, single-cycle, JC53-BL cells
[3] = target: biotinylated HR1 peptide Biotin-T-2324 (HIV-1 gp41 HR1) (Human immunodeficiency virus type 1 group M subtype B, UniProt P04582, G556A); test: Binding affinity of HR2 containing polypeptides to HR1 by Surface Plasmon Resonance (BIAcore 3000); conditions: SPR, 25° C., immobilized HR1 peptide Biotin-T-2324, 1:1 Langmuir model
[4] = test system: HIV-1 JR-CSF virus
Description: Human PBMC were isolated from buffy-coats (obtained from the Stanford Blood Center) by a Ficoll-Paque (Amersham, Piscataway, N.J., USA) density gradient centrifugation according to manufacturer's protocol. Briefly, blood was transferred from the buffy coats in 50 ml conical tubes and diluted with sterile Dulbecco's phosphate buffered saline (Invitrogen/Gibco) to a final volume of 50 ml. Twenty-five ml of the diluted blood was transferred to two 50 ml conical tubes, carefully underlayerd with 12.5 ml of Ficoll-Paque Plus (Amersham Biosciences) and centrifuged at room temperature for 20 min. at 450×g without braking. The white cell layer was carefully transferred to a new 50 ml conical tube and washed twice with PBS. To remove remaining red blood cells, cells were incubated for 5 min. at room temperature with ACK lysis buffer (Biosource) and washed one more time with PBS. PBMC were counted and incubated at a concentration of 2-4×10^6 cells/ml in RPMI1640 containing 10% FCS (Invitrogen/Gibco), 1% penicillin/streptomycin, 2 mM L-glutamine, 1 mM sodium-pyruvate, and 2 μg/ml Phytohemagglutinin (Invitrogen) for 24 h at 37° C. […] Virus production was measured at the end of infection by using p24 ELISA (HIV-1 p24 ELISA #NEK050B) using the sigmoid dose-response model with one binding site in Microsoft Excel Fit (version 3.0.5 Build12; equation 205; Microsoft).

Compound	Antiviral activity % Inhibition at 20 μg/mL [1]	Antiviral activity % Inhibition at 20 μg/mL [2]	KA [3]	Kd [3]	ka [3]	kd [3]	Antiviral activity IC50 ([2]; 3 day incubation, luciferase activity)	Antiviral activity IC50 [4]
4976/4818: anti-IGF-1R IgG1: light chain 4976 with T-651 N-terminal (including variable domain), wt heavy chain 4818 (QIWNNMTWMEWDREINNYTSLIHSLIEESQNQQEKNEQELLGGGGSGGGGSGGGGSGAS; also: fused N-terminally to light chain of anti-IGF-1R IgG1)	38%	17%	2.63e+10 M⁻¹	0.038 nM	923000 M⁻¹ s⁻¹	3.51e-05 s⁻¹		
4972/4802: anti-IGF-1R IgG1: wt light chain 4802, heavy chain 4972 with T-2635 conjugated C-terminally via linker SEQ ID NO: 11 (GGGGSGGGGSGGGGSGGTTWEAWDRAIAEYAARIEALIRAAQEQQEKNEAALREL; also: fused C-terminally to heavy chain of anti-IGF-1R IgG1)	43%	27%	1.01e+10 M⁻¹	0.0987 nM	786000 M⁻¹ s⁻¹	7.76e-05 s⁻¹		
enfuvirtide							0.38 µg/mL	
4970/4802: anti-IGF-1R IgG1: wt light chain 4802, heavy chain 4970 with T-651 conjugated C-terminally via linker SEQ ID NO: 11 (GGGGSGGGGSGGGGSGGNMTWMEWDREINNYTSLIHSLIEESQNQQEKNEQELL; also: fused C-terminally to heavy chain of anti-IGF-1R IgG1)	20%	15%	9.11e+10 M⁻¹	0.011 nM	1.01e+06 M⁻¹ s⁻¹	1.11e-05 s⁻¹		
CC[C@H](C)[C@H](NC(=O)[C@H](C)NC(=O)[C@H](CCCNC(=N)N)NC(=O)[C@H](CC(=O)O)NC(=O)[C@H](Cc1c[nH]c2ccccc12)NC(=O)[C@H](C)NC(=O)[C@H](CCC(=O)O)NC(=O)[C@H](Cc1c[nH]c2ccccc12)NC(=O)[C@@H](NC(=O)[C@@H](NC(C)=O)[C@@H](C)O)[C@@H](C)O)C(=O)N[C@@H](C)C(=O)N[C@@H](CCC(=O)O)C(=O)N[C@@H](Cc1ccc(O)cc1)C(=O)N[C@@H](C)C(=O)N[C@@H](C)C(=O)N[C@@H](CCCNC(=N)N)C(=O)N[C@H](C(=O)N[C@@H](CCC(=O)O)C(=O)N[C@@H](C)C(=O)N[C@@H](CC(C)C)C(=O)N[C@H](C(=O)N[C@@H](CCCNC(=N)N)C(=O)N[C@@H](C)C(=O)N[C@@H](C)C(=O)N[C@@H](CCC(N)=O)C(=O)N[C@@H](CCC(=O)O)C(=O)N[C@@H](CCC(N)=O)C(=O)N[C@@H](CCC(N)=O)C(=O)N[C@@H](CCC(=O)O)C(=O)N[C@@H](CCCCN)C(=O)N[C@@H](CC(N)=O)C(=O)N[C@@H](CCC(=O)O)C(=O)N[C@@H](C)C(=O)N[C@@H](C)C(=O)N[C@@H](CC(C)C)C(=O)N[C@@H](CCCNC(=N)N)C(=O)N[C@@H](CCC(=O)O)C(=O)N[C@@H](CC(C)C)C(N)=O)[C@@H](C)CC)[C@@H](C)CC [Compound T-2635]								0.004 µg/mL
